Measured values taken from patent publication US7892733.
Values belong to the substance of their own block, whether it stands above or below them.

Experiments:
[1] = biological target: endogenous IL-3 receptors of BaF3 cells (UniProt P26952); test: cell-based or functional assay
[2] = biological target: full-length human G-CSF receptor (human) (UniProt Q99062); test: cell-based or functional assay
Chain of UniProt Q99062 (Q99062 25-836): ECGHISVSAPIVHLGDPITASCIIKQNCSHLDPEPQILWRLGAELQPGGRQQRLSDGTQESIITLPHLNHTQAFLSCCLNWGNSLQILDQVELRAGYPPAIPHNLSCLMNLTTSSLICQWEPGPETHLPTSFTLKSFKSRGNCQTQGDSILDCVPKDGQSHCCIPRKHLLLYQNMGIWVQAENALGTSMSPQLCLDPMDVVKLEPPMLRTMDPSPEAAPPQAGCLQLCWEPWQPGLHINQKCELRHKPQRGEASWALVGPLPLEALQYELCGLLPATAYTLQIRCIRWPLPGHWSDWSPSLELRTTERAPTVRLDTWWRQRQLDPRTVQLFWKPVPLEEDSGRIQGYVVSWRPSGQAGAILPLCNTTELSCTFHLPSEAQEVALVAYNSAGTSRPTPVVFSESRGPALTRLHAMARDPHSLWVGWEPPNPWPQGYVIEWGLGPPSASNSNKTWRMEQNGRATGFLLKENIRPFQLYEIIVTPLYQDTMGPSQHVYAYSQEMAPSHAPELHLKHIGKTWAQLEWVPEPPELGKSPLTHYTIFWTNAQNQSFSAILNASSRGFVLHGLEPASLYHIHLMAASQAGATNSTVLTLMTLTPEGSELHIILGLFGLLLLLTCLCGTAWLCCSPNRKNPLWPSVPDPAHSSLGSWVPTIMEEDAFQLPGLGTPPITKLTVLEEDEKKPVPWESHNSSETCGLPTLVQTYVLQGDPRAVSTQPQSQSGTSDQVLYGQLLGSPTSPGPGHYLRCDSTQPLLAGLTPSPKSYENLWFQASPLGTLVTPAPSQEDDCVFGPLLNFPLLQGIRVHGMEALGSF

Chain of UniProt P26952 (P26952 17-396): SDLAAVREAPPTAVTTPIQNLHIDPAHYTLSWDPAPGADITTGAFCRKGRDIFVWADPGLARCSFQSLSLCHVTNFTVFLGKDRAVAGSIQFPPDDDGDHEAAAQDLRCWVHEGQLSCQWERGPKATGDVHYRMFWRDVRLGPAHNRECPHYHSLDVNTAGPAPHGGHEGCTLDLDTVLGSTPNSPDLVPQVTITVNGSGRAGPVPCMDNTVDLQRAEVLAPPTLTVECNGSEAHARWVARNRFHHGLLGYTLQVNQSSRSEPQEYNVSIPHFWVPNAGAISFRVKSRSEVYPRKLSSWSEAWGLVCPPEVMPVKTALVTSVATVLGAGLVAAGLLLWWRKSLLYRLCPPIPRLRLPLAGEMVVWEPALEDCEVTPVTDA

PLAP reporter activity (4-MU fluorescence 360/460 nm), +IL-3, - filtration; 3X-RS-pGTPLAP in BaF3, 25 ng/ml rMuIL-3 [1]: 85
PLAP reporter activity, +IL-3, + filtration; 3X-RS-pGTPLAP in BaF3 [1]: 82
PLAP reporter activity, +IL-3, + filtration; 6X-RS-pGTPLAP in BaF3 [1]: 177
PLAP reporter activity, +IL-3, + filtration; 9X-RS-pGTPLAP in BaF3 [1]: 257
PLAP reporter activity, +IL-3, + filtration; 12X-RS-pGTPLAP in BaF3 [1]: 384
PLAP reporter activity, +IL-3, + filtration; Greater than 12X-RS-pGTPLAP in BaF3 [1]: 389
PLAP reporter activity, +IL-3, - filtration; 6X-RS-pGTPLAP in BaF3 [1]: 175
PLAP reporter activity, +IL-3, - filtration; 9X-RS-pGTPLAP in BaF3 [1]: 276
PLAP reporter activity, +IL-3, - filtration; 12X-RS-pGTPLAP in BaF3 [1]: 402
PLAP reporter activity, +IL-3, - filtration; Greater than 12X-RS-pGTPLAP in BaF3 [1]: 384
PLAP reporter activity, +IL-3, average - baseline; 3X-RS-pGTPLAP in BaF3 [1]: 70
PLAP reporter activity, +IL-3, average - baseline; 6X-RS-pGTPLAP in BaF3 [1]: 160
PLAP reporter activity, +IL-3, average - baseline; 9X-RS-pGTPLAP in BaF3 [1]: 250
PLAP reporter activity, +IL-3, average - baseline; 12X-RS-pGTPLAP in BaF3 [1]: 375
PLAP reporter activity, +IL-3, average - baseline; Greater than 12X-RS-pGTPLAP in BaF3 [1]: 370
fold stimulation (avg +IL-3 / avg -IL-3); 3X-RS-pGTPLAP in BaF3 [1]: 3.5 fold
fold stimulation (avg +IL-3 / avg -IL-3); 6X-RS-pGTPLAP in BaF3 [1]: 5.4 fold
fold stimulation (avg +IL-3 / avg -IL-3); 9X-RS-pGTPLAP in BaF3 [1]: 6.2 fold
fold stimulation (avg +IL-3 / avg -IL-3); 12X-RS-pGTPLAP in BaF3 [1]: 8.4 fold
fold stimulation (avg +IL-3 / avg -IL-3); Greater than 12X-RS-pGTPLAP in BaF3 [1]: 11.2 fold
Substance: recombinant murine interleukin-3 (from UniProt P01586 33-166) (ligand)

luminescence output-fold stimulation over background (assay medium alone); luciferase reporter, HuG-CSFR-luc (clone 40) cells, 0.8 ng/mL and 5.0 ng/mL GCSF, four hours [2]: 3 fold
Substance: G-CSF (ligand)
